Data on 5 molecules can be found in patent US6359127B1, “MCH2, an apoptotic cysteine protease, and compositions for making and methods of using the same” (Thomas Jefferson University, priority 1995, dated 2002).

In experiment [1] the test system is YVAD-AMC (SEQ ID NO:8). Description: cleavage of fluorogenic peptide YVAD-AMC by bacterial extracts expressing GST-fusion enzymes. The experiment is classed as biochemical. The note with it: for ability to cleave the YVAD substrate: total bacterial extracts, GST-fusion proteins. The method, then: (§1) To determine the enzymatic activity of Mch2, CPP32 or ICE, these enzymes were expressed in E. coli as fusion proteins with glutathione S-transferase (GST). A GST-CPP32-p20 fusion protein that contains amino acids 1-175 of CPP32 and a GST nonfusion protein were used as controls. After induction with IPTG, bacterial extracts were prepared from E. coli expressing the recombinant fusion proteins. The extracts were absorbed to glutathione-Sepharose resin, washed several times and then analyzed by SDS-PAGE. The ICEγ, CPP32 and Mch2α preparations containing GST-fusion proteins ranged in size from ˜28-35 kDa. The GST nonfusion protein control migrated as a ˜27-28 kDa protein. […] Aps26 of ICEγ which corresponds to Asp 119 of ICEα is a site that is cleaved during ICE activation. Cleavage at this site would generate a GST-fusion protein with a predicted molecular mass of ˜29 kDa that might correspond to the 31 kDa band. Cleavage at Asp 3 of ICEγ, although it is not a known ICE cleavage site, could generate the 28 kDa band (lane 2). Similar to the GST-ICEγ preparation, the GST-CPP32 and GST-Mch2 preparations contain smaller than predicted GST fusion products. The GST-CPP32 fusion product migrates as a ˜29-30 kDa protein. Cleavaae at Asp9 or Asp28 of CPP32 would generate products with predicted molecular masses of ˜27.3 kDa or ˜29.4 kDa, respectively. Based on the observed size of the GST-CPP32 product, CPP32 is most probably cleaved at Asp28, although it is possible that both sites are cleaved during CPP32 autoprocessing. Unlike the GST-CPP32 which contains full length CPP32, the GST-CPP32-p20 product which contains a truncated CPP32 migrates as a ˜46 kDa protein that agreed with its predicted molecular mass. […] Therefore if CPP32 is cleaved at Asp28, CPP32 appears to be made up of two subunits of relative molecular masses of 17 kDa and 11 kDa. However, the exact Asp cleavage sites that are utilized to generate active CPP32 remains to be determined by amino acid sequencing. The GST-Mch2α preparation contains two major bands that migrate as ˜31-32 kDa and ˜34-35 kDa proteins. This is consistent with cleavage at Asp23, Asp32 or Asp40 of Mch2α. These GST-Mch2α cleavage products are larger than the GST-CPP32 product because of the presence of extra 33 amino acids in the GST-Mch2α fusion construct that are derived from the 5′ untranslated region of Mch2α. A minor band of ˜27 kDa is also present in this preparation that could be due to cleavage at a site near the C-terminus of the GST peptide itself. The majority of GST-Mch2β was expressed in E. coli in […] and was not cleaved.
After establishing that Mch2 and CPP32 can autoprocess in bacteria, their enzymatic activity were tested using two fluorogenic peptide substrates, YVAD-AMC (SEQ ID NO:8) and DEVD-AMC (SEQ ID NO:3). The YVAD (SEQ ID NO:8) […] is the ICE cleavage site in pro-IL1β and the DEVD (SEQ ID NO:9) tetrapeptide is a site present in PARP that is cleaved by an ICE-like protein during apoptosis. The enzymatic activities of Mch2α, Mch2β, CPP32 and ICEγ, in total bacterial extracts from cells expressing these enzymes as GST-fusion proteins was studied using the YVAD-AMC (SEQ ID NO:8) and DEVD-AMC (SEQ ID NO:3) tetrapeptides as substrates. […] The purified GST-fusion products or the GST control extract had no enzymatic activity with either of the substrates.

Experiment [2] has as its system DEVD-AMC (SEQ ID NO:3). Description: cleavage of fluorogenic peptide DEVD-AMC by bacterial extracts expressing GST-fusion enzymes. It counts as biochemical. The note with it: for ability to cleave the DEVD substrate: total bacterial extracts, GST-fusion proteins. On the procedure:
as §1
After establishing that Mch2 and CPP32 can autoprocess in bacteria, their enzymatic activity were tested using two fluorogenic peptide substrates, YVAD-AMC (SEQ ID NO:8) and DEVD-AMC (SEQ ID NO:3). […]

For experiment [3], the system named is human PARP. Put plainly: Western blot analysis of PARP cleavage after incubation with recombinant enzyme. The experiment is classed as biochemical. Particulars: Western blot with 4C10-5 antibody. The method, then: In apoptotic cells, nuclear proteins such as PARP, lamins and the 70-kDa protein component of the U1 small nuclear ribonucleoprotein are cleaved specifically by an unknown ICE-like cysteine protease(s). Cleavage of human PARP at the DEVD (SEQ ID NO:9) site (amino acid 211-214) would generate a large protein product of predicted molecular mass of 89.3 kDa (amino acids 215-1014). Western blot analysis of human PARP after incubation with recombinant Mch2α, Mch2β, ICEγ or CPP32 was performed using the 4C10-5 antibody. This antibody recognizes an epitope in the 41 kDa C-terminal chymotryptic fragment of PARP. CPP32 cleaved PARP to generate a major band of ˜90 kDa and a minor band of 57 kDa. The 90 kDa band was most probably generated by cleaving the DEVD (SEQ ID NO:9) site at residue 214 of PARP. This cleavage product is believed to correspond to an 85 kDa PARP cleavage product which has been described in apoptotic cells. The 57 kDa cleavage product is probably generated by cleavage at a site C-terminal to the DEVD (SEQ ID NO:9) site. This product was not detected with the C-2-10 antibody used in a previous study. This is probably because it recognizes an epitope that is N-terminal to the epitope that is recognized by the 4C10-5 antibody used in the present study. Mch2α also cleaved PARP to generate a major product of ˜83 kDa and a minor product of ˜57 kDa similar to that obtained with CPP32. PARP was not cleaved by Mch2β or ICEγ. […] Furthermore, the deletion in Mch2β abrogates its enzymatic activity.
In general terms: A western blot detects proteins with antibodies after separation by electrophoresis.

Experiment [4] concerns Sf9 cells. Put plainly: apoptosis of Sf9 cells infected with recombinant baculovirus expressing the protein. The experiment is classed as cell-based, insect. The note with it: polyhedron promoter. The text has this: To test whether expression of Mch2α has a similar apoptotic effect, Sf9 cells were infected with a recombinant baculovirus expressing Mch2α or Mch2β under the polyhedron promoter. Cells were also infected with the wild type virus and the recombinant ICE baculovirus as controls.

B1: ICEγ: isoform of interleukin-1 β converting enzyme (ICE), expressed as GST-fusion protein (protein)
chain: MADKVLKEKRKLFIRSMGEAPQAVQDNPAMPTSSGSEGNVKLCSLEEAQRIWKQKSAEIYPIMDKSSRTRLALIICNEEFDSIPRRTGAEVDITGMTMLLQNLGYSVDVKKNLTASDMTTELEAFAHRPEHKTSDSTFLVFMSHGIREGICGKKHSEQVPDILQLNAIFNMLNTKNCPSLKDKPKVIIIQACRGDSPGVVWFKDSVGVSGNLSLPTTEEFEDDAIKKAHIEKDFIAFCSSTPDNVSWRHPTMGSVFIGRLIEHMQEYACSCDVEEIFRKVRFSFEQPDGRAQMPTTERVTLTRCFYLFPGH
Consider B1, for which the “activity in cleaving the YVAD substrate relative to CPP32” value in experiment [1] (ICEγ versus CPP32) is “about 3 fold”. Besides, in experiment [1], the “ability to cleave the YVAD substrate” value is on record as “able to cleave”. In experiment [2], the “ability to cleave the DEVD substrate” value is given as “able to cleave”. Moreover, the “cleavage of PARP” value in experiment [3] is given as “not cleaved”.

B2: ICE: mammalian interleukin-1 β converting enzyme, expressed from recombinant ICE baculovirus as control (protein)
chain: B1 chain
In the case of B2, the “characteristic signs of apoptosis (membrane blebbing, nuclear fragmentation and condensation, internucleosomal DNA cleavage)” value in experiment [4] is given as “several characteristic signs of apoptosis”.

B3: Mch2β: alternatively spliced shorter Mch2 isoform, 204 amino acid ~23 kDa protein, SEQ ID NO:7 (protein)
chain: MSSASGLRRGHPAVSTVSHADADCFVCVFLSHGEGNHIYAYDAKIEIQTLTGLFKGDKCHSLVGKPKIFIIQACRGNQHDVPVIPLDVVDNQTEKLDTNITEVDAASVYTLPAGADFLMCYSVAEGYYSHRETVNGSWYIQDLCEMLGKYGSSLEFTELLTLVNRKVSQRRVDFCKDPSAIGKKQVPCFASMLTKKLHFFPKSN
Take B3: the “ability to cleave the YVAD substrate” value in experiment [1] was “No detectable enzymatic activity”. For the same molecule, the “cleavage of PARP” value in experiment [3] is on record as “not cleaved”.

B4: Mch2α: full length Mch2 isoform, 293 amino acid ~34 kDa Ced-3/ICE-like cysteine protease, SEQ ID NO:5 (protein)
chain: MSSASGLRRGHPAGGEENMTETDAFYKREMFDPAEKYKMDHRRRGIALIFNHERFFWHLTLPERRRTCADRDNLTRRFSDLGFEVKCFNDLKAEELLLKIHEVSTVSHADADCFVCVFLSHGEGNHIYAYDAKIEIQTLTGLFKGDKCHSLVGKPKIFIIQACRGNQHDVPVIPLDVVDNQTEKLDTNITEVDAASVYTLPAGADFLMCYSVAEGYYSHRETVNGSWYIQDLCEMLGKYGSSLEFTELLTLVNRKVSQRRVDFCKDPSAIGKKQVPCFASMLTKKLHFFPKSN
In the case of B4, the “ability to cleave the YVAD substrate” value in experiment [1] is listed as “No detectable enzymatic activity”. Further, the “ability to cleave the DEVD substrate” value in experiment [2] is given as “able to cleave”. Further, the “cleavage of PARP” value in experiment [3] is recorded as “cleaved PARP”. Also, in experiment [4], the “characteristic signs of apoptosis (membrane blebbing, nuclear fragmentation and condensation, internucleosomal DNA cleavage)” value is “several characteristic signs of apoptosis”; the “viability of infected cells” value is “decrease in viability”.

B5: CPP32: human Cpp32 (Mch1) apoptotic cysteine protease, expressed as GST-fusion protein (protein)
chain: MENTENSVDSKSIKNLEPKIIHGSESMDSGISLDNSYKMDYPEMGLCIIINNKNFHKSTGMTSRSGTDVDAANLRETFRNLKYEVRNKNDLTREEIVELMRDVSKEDHSKRSSFVCVLLSHGEEGIIFGTNGPVDLKKITNFFRGDRCRSLTGKPKLFIIQACRGTELDCGIETDSGVDDDMACHKIPVEADFLYAYSTAPGYYSWRNSKDGSWFIQSLCAMLKQYADKLEFMHILTRVNRKVATEFESFSFDATFHAKKQIPCIVSMLTKELYFYH
Take B5: in experiment [1], the “ability to cleave the YVAD substrate” value was “able to cleave”. Besides, in experiment [2] (from initial rate of the reactions, assuming similar amount of each enzyme in extracts), the “activity in cleaving the DEVD substrate relative to ICEγ or Mch2α” value is around 150 fold. For the same molecule, in experiment [2], the “ability to cleave the DEVD substrate” value is “able to cleave”. For the same molecule, in experiment [3], the “cleavage of PARP” value is “cleaved PARP”.
